Test results taken from publication PMC9482650, “Quantitative fragmentomics allow affinity mapping of interactomes” (Nature Communications, 2022).

T1: APBA1_1, Q02410
T1 sequence (Q02410 651-752, limits assumed, looked up): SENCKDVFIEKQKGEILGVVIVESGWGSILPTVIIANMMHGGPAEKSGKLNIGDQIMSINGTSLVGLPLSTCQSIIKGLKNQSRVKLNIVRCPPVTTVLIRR

T2: ARHGAP21, Q5T5U3
T2 sequence (Q5T5U3 45-169, limits assumed, looked up): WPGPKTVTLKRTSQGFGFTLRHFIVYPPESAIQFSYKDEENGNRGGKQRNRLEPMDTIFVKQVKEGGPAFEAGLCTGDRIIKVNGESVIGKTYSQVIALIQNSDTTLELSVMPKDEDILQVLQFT

T3: DFNB31_1, Q9P202
T3 sequence (Q9P202 135-233, limits assumed, looked up): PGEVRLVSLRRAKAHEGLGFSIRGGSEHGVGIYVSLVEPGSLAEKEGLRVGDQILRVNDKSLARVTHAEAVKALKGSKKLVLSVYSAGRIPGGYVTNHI

T4: DLG3_1, Q92796
T4 sequence (Q92796 125-227, limits assumed, looked up): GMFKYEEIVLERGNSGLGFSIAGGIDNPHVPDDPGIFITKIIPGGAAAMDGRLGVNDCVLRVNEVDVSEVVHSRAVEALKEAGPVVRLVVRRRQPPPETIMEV

T5: DLG3_3, Q92796
T5 sequence (Q92796 374-475, limits assumed, looked up): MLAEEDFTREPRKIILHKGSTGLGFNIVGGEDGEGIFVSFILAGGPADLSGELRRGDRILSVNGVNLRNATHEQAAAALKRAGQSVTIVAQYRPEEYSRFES

T6: HTRA3, P83110
T6 sequence (P83110 354-453, limits assumed, looked up): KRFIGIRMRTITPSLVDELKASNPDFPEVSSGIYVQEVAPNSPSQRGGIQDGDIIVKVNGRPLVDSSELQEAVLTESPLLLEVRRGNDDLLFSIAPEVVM

T7: HTRA4, P83105
T7 sequence (P83105 378-476, limits assumed, looked up): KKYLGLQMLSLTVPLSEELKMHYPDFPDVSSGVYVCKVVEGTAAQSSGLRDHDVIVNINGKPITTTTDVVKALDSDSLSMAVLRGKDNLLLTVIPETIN

T8: MPDZ_5, O75970
T8 sequence (O75970 695-796, limits assumed, looked up): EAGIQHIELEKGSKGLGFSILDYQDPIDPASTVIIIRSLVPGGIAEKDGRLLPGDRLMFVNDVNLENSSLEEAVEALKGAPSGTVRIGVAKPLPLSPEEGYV

T9: MPP6, Q9NZW5
T9 sequence (Q9NZW5 125-219, limits assumed, looked up): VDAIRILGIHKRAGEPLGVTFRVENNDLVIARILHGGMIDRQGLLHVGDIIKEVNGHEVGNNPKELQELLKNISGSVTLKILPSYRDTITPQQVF

T10: NHERF3_3, Q5T2W1
T10 sequence (Q5T2W1 238-333, limits assumed, looked up): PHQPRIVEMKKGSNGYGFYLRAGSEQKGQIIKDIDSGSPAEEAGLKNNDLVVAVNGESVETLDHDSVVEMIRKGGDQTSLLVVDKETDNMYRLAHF

T11: PCLO, Q9Y6V0
T11 sequence (Q9Y6V0 4491-4600, limits assumed, looked up): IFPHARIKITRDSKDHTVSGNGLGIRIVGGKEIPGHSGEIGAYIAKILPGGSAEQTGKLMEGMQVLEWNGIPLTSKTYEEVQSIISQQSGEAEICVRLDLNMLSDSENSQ

T12: RHPN1, Q8TCX5
T12 sequence (Q8TCX5 508-602, limits assumed, looked up): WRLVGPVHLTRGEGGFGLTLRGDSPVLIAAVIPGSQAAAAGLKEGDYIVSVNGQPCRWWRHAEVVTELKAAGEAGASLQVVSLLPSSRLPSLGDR

T13: TJP3_3, O95049
T13 sequence (O95049 375-456, limits assumed, looked up): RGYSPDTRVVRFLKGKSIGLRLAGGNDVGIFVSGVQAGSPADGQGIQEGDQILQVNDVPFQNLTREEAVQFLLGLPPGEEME


Assays:
Experiment in all cases: holdup assay
Parameters in all cases: key: below the threshold = too weak to quantify, mostly under pKd 3.1 to 4
Settings in all cases: plain residues with an end cap or a label only (N-terminal biotin on a linker: ado-ado)
APBA1_1, Q02410 = biological target: T1, APBA1_1, Q02410
ARHGAP21, Q5T5U3 = biological target: T2, ARHGAP21, Q5T5U3
ARHGEF12, Q9NZN5-2 = biological target: ARHGEF12, Q9NZN5-2
DFNB31_1, Q9P202 = biological target: T3, DFNB31_1, Q9P202
DLG1_1, Q12959 = biological target: DLG1_1, Q12959
DLG3_1, Q92796 = biological target: T4, DLG3_1, Q92796
DLG3_3, Q92796 = biological target: T5, DLG3_3, Q92796
GORASP1, Q9BQQ3 = biological target: GORASP1, Q9BQQ3
GORASP2, Q9H8Y8 = biological target: GORASP2, Q9H8Y8
HTRA3, P83110 = biological target: T6, HTRA3, P83110
HTRA4, P83105 = biological target: T7, HTRA4, P83105
LIMK2, P53671 = biological target: LIMK2, P53671
LNX1_1, Q8TBB1 = biological target: LNX1_1, Q8TBB1
LNX1_3, Q8TBB1 = biological target: LNX1_3, Q8TBB1
MAGI1_1, Q96QZ7 = biological target: MAGI1_1, Q96QZ7
MAGI2_6, Q86UL8 = biological target: MAGI2_6, Q86UL8
MPDZ_5, O75970 = biological target: T8, MPDZ_5, O75970
MPP6, Q9NZW5 = biological target: T9, MPP6, Q9NZW5
NHERF3_3, Q5T2W1 = biological target: T10, NHERF3_3, Q5T2W1
PCLO, Q9Y6V0 = biological target: T11, PCLO, Q9Y6V0
PDZRN4_1, Q6ZMN7 = biological target: PDZRN4_1, Q6ZMN7
PTPN3, P26045 = biological target: PTPN3, P26045
RHPN1, Q8TCX5 = biological target: T12, RHPN1, Q8TCX5
TJP3_3, O95049 = biological target: T13, TJP3_3, O95049

Sequence of ARHGEF12, Q9NZN5-2 (Q9NZN5 other isoform, or with tags, fused parts or gaps): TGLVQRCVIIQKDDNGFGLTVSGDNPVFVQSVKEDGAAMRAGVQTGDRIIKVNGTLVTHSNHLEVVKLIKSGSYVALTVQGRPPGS
Sequence of LIMK2, P53671 (P53671 143-248): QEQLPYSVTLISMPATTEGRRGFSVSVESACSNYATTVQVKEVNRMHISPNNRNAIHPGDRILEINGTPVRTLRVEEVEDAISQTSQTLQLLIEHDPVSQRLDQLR
Sequence of LNX1_1, Q8TBB1 (Q8TBB1 261-371): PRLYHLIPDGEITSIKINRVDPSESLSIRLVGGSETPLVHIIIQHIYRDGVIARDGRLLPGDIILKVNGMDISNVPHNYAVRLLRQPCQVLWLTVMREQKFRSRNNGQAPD
Sequence of LNX1_3, Q8TBB1 (Q8TBB1 500-596): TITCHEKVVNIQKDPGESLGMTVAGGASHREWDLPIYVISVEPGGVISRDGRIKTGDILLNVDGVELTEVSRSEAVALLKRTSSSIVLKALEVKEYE
Sequence of PTPN3, P26045 (P26045 505-587): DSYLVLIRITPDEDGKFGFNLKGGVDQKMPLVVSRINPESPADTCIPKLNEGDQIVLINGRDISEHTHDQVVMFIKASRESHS
Sequence of MAGI1_1, Q96QZ7 (Q96QZ7 1-106): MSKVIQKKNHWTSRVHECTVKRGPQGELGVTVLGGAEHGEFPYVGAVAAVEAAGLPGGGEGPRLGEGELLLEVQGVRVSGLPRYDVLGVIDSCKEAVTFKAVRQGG
Sequence of MAGI2_6, Q86UL8 (Q86UL8 1141-1229): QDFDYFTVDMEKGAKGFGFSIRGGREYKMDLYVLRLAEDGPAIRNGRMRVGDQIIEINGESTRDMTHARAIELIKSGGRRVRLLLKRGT
Sequence of GORASP1, Q9BQQ3 (Q9BQQ3 1-208): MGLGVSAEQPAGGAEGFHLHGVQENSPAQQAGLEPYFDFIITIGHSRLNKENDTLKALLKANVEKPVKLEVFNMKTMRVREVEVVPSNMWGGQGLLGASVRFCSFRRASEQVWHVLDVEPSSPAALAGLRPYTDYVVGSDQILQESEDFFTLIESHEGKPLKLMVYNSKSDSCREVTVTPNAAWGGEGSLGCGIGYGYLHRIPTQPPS
Sequence of PDZRN4_1, Q6ZMN7 (Q6ZMN7 213-318): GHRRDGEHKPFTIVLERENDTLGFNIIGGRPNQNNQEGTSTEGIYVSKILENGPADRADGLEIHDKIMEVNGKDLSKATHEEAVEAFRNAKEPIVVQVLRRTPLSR

pKd (APBA1_1, Q02410) | pKd (ARHGAP21, Q5T5U3) | pKd (ARHGEF12, Q9NZN5-2) | pKd (DFNB31_1, Q9P202) | pKd (DLG1_1, Q12959) | pKd (DLG3_1, Q92796) | pKd (DLG3_3, Q92796) | pKd (GORASP1, Q9BQQ3) | pKd (GORASP2, Q9H8Y8) | pKd (HTRA3, P83110) | pKd (HTRA4, P83105) | pKd (LIMK2, P53671) | pKd (LNX1_1, Q8TBB1) | pKd (LNX1_3, Q8TBB1) | pKd (MAGI1_1, Q96QZ7) | pKd (MAGI2_6, Q86UL8) | pKd (MPDZ_5, O75970) | pKd (MPP6, Q9NZW5) | pKd (NHERF3_3, Q5T2W1) | pKd (PCLO, Q9Y6V0) | Binder | further results
below the threshold | below the threshold | below the threshold | below the threshold | below the threshold | below the threshold | below the threshold | below the threshold | 3.62 | 3.61 | 3.49 | below the threshold | below the threshold | below the threshold | below the threshold | below the threshold | below the threshold | below the threshold | below the threshold | below the threshold | MHIQEKGFHV [EPHA6, Q9UF33] | pKd (PDZRN4_1, Q6ZMN7): below the threshold; pKd (PTPN3, P26045): below the threshold; pKd (RHPN1, Q8TCX5): below the threshold; pKd (TJP3_3, O95049): below the threshold
below the threshold | 3.83 | below the threshold | below the threshold | below the threshold | below the threshold | below the threshold | below the threshold | 3.61 | below the threshold | below the threshold | below the threshold | below the threshold | below the threshold | below the threshold | below the threshold | below the threshold | below the threshold | below the threshold | below the threshold | TRKRSGEAAV [PFKM, P08237] | pKd (PDZRN4_1, Q6ZMN7): below the threshold; pKd (PTPN3, P26045): 4.15; pKd (RHPN1, Q8TCX5): below the threshold; pKd (TJP3_3, O95049): below the threshold
below the threshold | 4 | 4.08 | 3.8 | 4.4 | 4.03 | 3.8 | below the threshold | below the threshold | below the threshold | 4.29 | below the threshold | 4.17 | below the threshold | below the threshold | 4.46 | 3.66 | below the threshold | below the threshold | below the threshold | VLYPREGTEV [FOXI1, Q12951] | pKd (PDZRN4_1, Q6ZMN7): 4.25; pKd (PTPN3, P26045): 4.76; pKd (RHPN1, Q8TCX5): 3.95; pKd (TJP3_3, O95049): 3.48
